# Laboratory results from article PMC9120031.
# Molecular target: FLAG-tagged V-ATPase a3 subunit (full-length) (UniProt Q9JHF5)
# Assay: co-IP; FLAG- and V5-tagged proteins co-expressed in HEK293T cells; lysed 48 h after transfection in IP buffer (1% Triton X-100, 10% glycerol, 50 mM Tris-HCl pH 7.4, 150 mM NaCl, 1 mM dithiothreitol, 1 mM EDTA); precipitated with anti-FLAG antibody; western blot with anti-V5 (or anti-A subunit) antibody
# UniProt Q9JHF5, sequence (Q9JHF5 entry or part of it): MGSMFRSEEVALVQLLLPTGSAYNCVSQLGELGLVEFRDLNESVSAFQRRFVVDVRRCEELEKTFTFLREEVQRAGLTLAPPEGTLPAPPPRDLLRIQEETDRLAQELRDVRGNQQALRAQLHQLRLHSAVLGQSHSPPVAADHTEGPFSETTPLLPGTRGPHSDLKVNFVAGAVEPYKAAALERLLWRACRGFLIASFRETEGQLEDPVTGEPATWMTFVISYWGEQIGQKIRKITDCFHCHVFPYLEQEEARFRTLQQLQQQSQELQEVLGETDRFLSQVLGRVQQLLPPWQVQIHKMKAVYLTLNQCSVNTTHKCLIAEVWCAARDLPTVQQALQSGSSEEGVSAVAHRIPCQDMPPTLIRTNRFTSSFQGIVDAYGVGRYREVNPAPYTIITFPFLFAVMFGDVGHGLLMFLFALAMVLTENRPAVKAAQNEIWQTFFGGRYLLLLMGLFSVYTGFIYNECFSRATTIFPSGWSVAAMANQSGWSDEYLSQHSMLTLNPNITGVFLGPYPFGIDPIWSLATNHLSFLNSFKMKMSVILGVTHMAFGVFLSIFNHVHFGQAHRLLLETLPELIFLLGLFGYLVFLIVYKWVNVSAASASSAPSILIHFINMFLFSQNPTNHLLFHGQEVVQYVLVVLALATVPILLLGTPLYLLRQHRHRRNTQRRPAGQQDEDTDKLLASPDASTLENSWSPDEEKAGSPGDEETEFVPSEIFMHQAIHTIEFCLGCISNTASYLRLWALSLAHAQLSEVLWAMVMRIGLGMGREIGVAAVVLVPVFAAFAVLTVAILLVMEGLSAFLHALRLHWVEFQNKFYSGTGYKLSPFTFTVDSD
substance,measurement,value
V5-tagged GDP-fixed form of Rab7(T22N) (from UniProt P51150 1-207) (natural protein),"fold increase of Rab7 co-precipitated with a3 when V5-Mon1A and V5-Ccz1 were exogenously expressed, against without them",3 fold
